Results reported in article doi:10.1101/2023.02.02.526371.

Target: T1, PIF3-GST (Arabidopsis thaliana, UniProt O80536 1-524)
T1 sequence: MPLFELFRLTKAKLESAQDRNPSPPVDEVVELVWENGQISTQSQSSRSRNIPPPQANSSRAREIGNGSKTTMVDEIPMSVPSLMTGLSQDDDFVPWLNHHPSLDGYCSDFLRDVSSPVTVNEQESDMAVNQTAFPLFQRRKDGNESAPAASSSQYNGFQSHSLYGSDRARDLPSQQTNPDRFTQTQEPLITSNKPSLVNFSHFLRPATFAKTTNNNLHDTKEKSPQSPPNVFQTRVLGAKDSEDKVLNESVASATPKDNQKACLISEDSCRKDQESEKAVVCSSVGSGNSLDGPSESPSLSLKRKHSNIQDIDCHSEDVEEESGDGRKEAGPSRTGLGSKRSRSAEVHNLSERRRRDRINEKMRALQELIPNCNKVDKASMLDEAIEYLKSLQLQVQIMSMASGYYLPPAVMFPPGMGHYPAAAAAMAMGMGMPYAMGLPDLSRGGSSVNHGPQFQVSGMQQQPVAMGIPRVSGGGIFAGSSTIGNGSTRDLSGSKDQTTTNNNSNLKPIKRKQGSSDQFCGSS
Assay: EMSA

B1: PIEZO promoter probe 1 (dsDNA)
DNA 1: CCTAGAACTAAACACATGAGCCTCCTTCTT
DNA 2: AAGAAGGAGGCTCATGTGTTTAGTTCTAGG
binding result: binds

B2: PIEZO promoter probe 2 (dsDNA)
DNA 1: ATCCAAATGGACCACATGCCCATCAACCTCCAT
DNA 2: ATGGAGGTTGATGGGCATGTGGTCCATTTGGAT
binding result: binds
